T1: CD123 (Homo sapiens (Human), UniProt P26951 19-305, limits assumed)
T1 sequence: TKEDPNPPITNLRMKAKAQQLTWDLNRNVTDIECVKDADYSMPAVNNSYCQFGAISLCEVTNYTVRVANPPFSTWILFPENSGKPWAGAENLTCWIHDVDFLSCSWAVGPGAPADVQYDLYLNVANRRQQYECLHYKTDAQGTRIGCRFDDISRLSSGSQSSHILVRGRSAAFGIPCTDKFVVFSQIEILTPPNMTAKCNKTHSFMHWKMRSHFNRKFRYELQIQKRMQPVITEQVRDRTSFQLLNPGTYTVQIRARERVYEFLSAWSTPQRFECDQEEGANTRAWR

B1: D-domain SEQ ID NO: 341 (designed binder)
chain: MGSWIEFHERLWAIEDRLWALGGSEAELAAFEKEIAAFESELQAYKGKGNPEVESLREMAASIRHGLQAYRHN
B2: D-domain SEQ ID NO: 342 (designed binder)
chain: MGSWFEFYERLWAIDDRLWALGGSEAELAAFEKEIAAFESELQAYKGKGNPEVEWLREEAASIRSSLQAYRHN
B3: D-domain SEQ ID NO: 343 (designed binder)
chain: MGSWFEFWDRLEAIDDRLFALGGSEAELAAFEKEIAAFESELQAYKGKGNPEVESLRYNAAEIRKELQAYRHN
B4: D-domain SEQ ID NO: 348 (designed binder)
chain: MGSWWEFDDRLFAIDTRLMALGGSEAELAAFEKEIAAFESELQAYKGKGNPEVESLREWAATIRMELQAYRHN
B5: D-domain SEQ ID NO: 344 (designed binder)
chain: MGSWHEFWSRLDAIDDRLFALGGSEAELAAFEKEIAAFESELQAYKGKGNPEVEYLRGAAADIRAELQAYRHN
B6: D-domain SEQ ID NO: 347 (designed binder)
chain: MGSWEEFWDRLFAIDDRLWALGGSEAELAAFEKEIAAFESELQAYKGKGNPEVETLRNEAAEIRMALQAYRHN
B7: D-domain SEQ ID NO: 345 (designed binder)
chain: MGSWYEFWIRLEAIDDRLFALGGSEAELAAFEKEIAAFESELQAYKGKGNPEVDILRDFAADIRTELQAYRHN
B8: D-domain SEQ ID NO: 346 (designed binder)
chain: MGSWHEFWDRLEAIDDRLYALGGSEAELAAFEKEIAAFESELQAYKGKGNPEVEFLREEAAYIRELLQAYRHN
B9: D-domain SEQ ID NO: 340 (designed binder)
chain: MGSWIEFNMRVLAIEDRLWALGGSEAELAAFEKEIAAFESELQAYKGKGNPEVESLRYEACLDPWSSAAYRHN
B10: HER2-binding D domain SEQ ID NO: 823 (designed binder)
chain: MGSWSEFWFRLHAILYRLQALGGSEAELAAFEKEIAAFESELQAYKGKGNPEVETLRDAAAEIRVALQAYRHN
B11: HER2-binding D domain SEQ ID NO: 828 (designed binder)
chain: MGSWWEFHVRLRAIEYRLEALGGSEAELAAFEKEIAAFESELQAYKGKGNPEVEQLRLIAANIRHLLQAYRHN
B12: HER2-binding D domain SEQ ID NO: 831 (designed binder)
chain: MGSWWEFQVRLAAIEYRLKALGGSEAELAAFEKEIAAFESELQAYKGKGNPEVENLRQLAAHIRSVLQAYRHN
B13: HER2-binding D domain SEQ ID NO: 840 (designed binder)
chain: MGSWWEFHIRLRAIKYRLYALGGSEAELAAFEKEIAAFESELQAYKGKGNPEVEDLRILAAEIRAQLQAYRHN
B14: HER2-binding D domain SEQ ID NO: 832 (designed binder)
chain: MGSWWEFQVRLSAIEYRLTALGGSEAELAAFEKEIAAFESELQAYKGKGNPEVEELRQKAARIRSLLQAYRHN
B15: HER2-binding D domain SEQ ID NO: 829 (designed binder)
chain: MGSWWEFHVRLKAIEYRLLALGGSEAELAAFEKEIAAFESELQAYKGKGNPEVEDLRYIAANIRQLLQAYRHN
B16: HER2-binding D domain SEQ ID NO: 815 (designed binder)
chain: MGSWWEFKVRLSAIQYRLYALGGSEAELAAFEKEIAAFESELQAYKGKGNPEVEALREQAALIRTILQAYRHN
B17: HER2-binding D domain SEQ ID NO: 824 (designed binder)
chain: MGSWIEFWVRLNAILYRLYALGGSEAELAAFEKEIAAFESELQAYKGKGNPEVEALRDSAAEIRRWLQAYRHN
B18: HER2-binding D domain SEQ ID NO: 816 (designed binder)
chain: MGSWWEFHIRLHAINYRLAALGGSEAELAAFEKEIAAFESELQAYKGKGNPEVEALRELAAKIRGDLQAYRHN
B19: HER2-binding D domain SEQ ID NO: 839 (designed binder)
chain: MGSWWEFNMRLSAIKYRLYALGGSEAELAAFEKEIAAFESELQAYKGKGNPEVEILRRLAADIRERLQAYRHN
notes: also called eb10
B20: HER2-binding D domain SEQ ID NO: 817 (designed binder)
chain: MGSWWEFQVRLRAIQYRLNALGGSEAELAAFEKEIAAFESELQAYKGKGNPEVEYLRGLAAQIRFDLQAYRHN
B21: HER2-binding D domain SEQ ID NO: 822 (designed binder)
chain: MGSWWEFKVRLRAIEYRLSALGGSEAELAAFEKEIAAFESELQAYKGKGNPEVEELRVLAASIRIHLQAYRHN
B22: HER2-binding D domain SEQ ID NO: 838 (designed binder)
chain: MGSWWEFNVRLSAIRYRLLALGGSEAELAAFEKEIAAFESELQAYKGKGNPEVEDLRASAAQIRAMLQAYRHN
B23: HER2-binding D domain SEQ ID NO: 818 (designed binder)
chain: MGSWWEFKIRLYAIEYRLNALGGSEAELAAFEKEIAAFESELQAYKGKGNPEVEALRAKAAQIRYNLQAYRHN
B24: HER2-binding D domain SEQ ID NO: 813 (designed binder)
chain: MGSWLVFKDELAGIKNYLEALGGSEAELATFEQDIAWFEQWLQNYKGKGNPEVEALRKEAAAIRDELQAYRHN
B25: HER2-binding D domain SEQ ID NO: 811 (designed binder)
chain: MGSWWGFKVNLAWIKWKLEALGGSEAELAYFELWIANFEHSLQEYKGKGNPEVEALRKEAAAIRDELQAYRHN
B26: HER2-binding D domain SEQ ID NO: 809 (designed binder)
chain: MGSWYEFRWRLHAIWLRLGALGGSEAELAAFEKEIAAFESELQAYKGKGNPEVEWLRQDAAQIRYILQAYRHN
notes: also called eb08
B27: HER2-binding D domain SEQ ID NO: 810 (designed binder)
chain: MGSWHEFLRRLLAIEMRLYALGGSEAELAAFEKEIAAFESELQAYKGKGNPEVEHLRVRAASIRQMLQAYRHN
notes: also called eb05
B28: HER2-binding D domain SEQ ID NO: 812 (designed binder)
chain: MGSWVNFKTHLARIKVHLEALGGSEAELALFEHDIANFEQVLQQYKGKGNPEVEALRKEAAAIRDELQAYRHN
B29: HER2-binding D domain SEQ ID NO: 819 (designed binder)
chain: MGSWFEFNIRLHAIEYRLKALGGSEAELAAFEKEIAAFESELQAYKGKGNPEVEELRNYAASIRKLLQAYRHN
B30: HER2-binding D domain SEQ ID NO: 833 (designed binder)
chain: MGSWWEFNIRLHAIDYRLKALGGSEAELAAFEKEIAAFESELQAYKGKGNPEVELLREKAAQIRAQLQAYRHN
notes: also called eb09
B31: HER2-binding D domain SEQ ID NO: 820 (designed binder)
chain: MGSWFEFEIRLRAIEYRLSALGGSEAELAAFEKEIAAFESELQAYKGKGNPEVEKLRELAAEIRYALQAYRHN
B32: HER2-binding D domain SEQ ID NO: 834 (designed binder)
chain: MGSWWEFRVRLEAIDYRLKALGGSEAELAAFEKEIAAFESELQAYKGKGNPEVEYLRMKAATIRAILQAYRHN
notes: also called eb06
B33: HER2-binding D domain SEQ ID NO: 821 (designed binder)
chain: MGSWFEFKIRLYAIQYRLSALGGSEAELAAFEKEIAAFESELQAYKGKGNPEVEELRNLAAEIRHSLQAYRHN
B34: HER2-binding D domain SEQ ID NO: 814 (designed binder)
chain: MGSWKTFKIELAGIKLELEALGGSEAELAGFENAIAQFESSLQYYKGKGNPEVEALRKEAAAIRDELQAYRHN
notes: also called eb04
B35: HER2-binding D domain SEQ ID NO: 825 (designed binder)
chain: MGSWVEFWIRLNAIKYRLLALGGSEAELAAFEKEIAAFESELQAYKGKGNPEVEKLRQDAADIRELLQAYRHN
B36: HER2-binding D domain SEQ ID NO: 826 (designed binder)
chain: MGSWTEFWWRLSAIVYRLNALGGSEAELAAFEKEIAAFESELQAYKGKGNPEVEELRDMAADIRSLLQAYRHN
B37: HER2-binding D domain SEQ ID NO: 827 (designed binder)
chain: MGSWWEFYLRLRAISYRLQALGGSEAELAAFEKEIAAFESELQAYKGKGNPEVEGLRQDAAEIRKLLQAYRHN
B38: HER2-binding D domain SEQ ID NO: 835 (designed binder)
chain: MGSWYEFDIRLEAIKYRLSALGGSEAELAAFEKEIAAFESELQAYKGKGNPEVEYLRKKAAVIRSMLQAYRHN
B39: HER2-binding D domain SEQ ID NO: 836 (designed binder)
chain: MGSWWEFRIRLEAIWYRLHALGGSEAELAAFEKEIAAFESELQAYKGKGNPEVEDLRIFAANIRSKLQAYRHN
B40: HER2-binding D domain SEQ ID NO: 837 (designed binder)
chain: MGSWWEFNVRLQAIKYRLSALGGSEAELAAFEKEIAAFESELQAYKGKGNPEVEDLRKTAAHIRWQLQAYRHN

In the first test the target is T1, CD123. Kind of test: ELISA, format not described. Details: unit not given here.
Take B1: the ELISA_avg turned out to be 3.4.
Take B2: the ELISA_avg was determined as 6.
As to B3, the ELISA_avg stood at 4.9.
B4: the ELISA_avg was 3.5.
Still for that read-out and setting: as for B5, the figure is 3.8; as for B6, 3.1; as for B7, 10.4.
Still for that read-out and setting: next, B8: 10.6; B9: 3.2.

A further test addresses T2, HER2 (human, UniProt P04626 23-652).
T2 construct: The ELISA is not described; also called ERBB2; CD340
Kind of test: ELISA, format not described. Further details: unit not given here. (ELISA stands for enzyme-linked immunosorbent assay.)
In turn, B10 displayed an ELISA_avg of 14.8.
Take B11: the ELISA_avg was 5.48.
Same read-out and setting: as for B12, the figure is 6.33; as for B13, 14.8; as for B14, 9.61.
The same measure, in the same setting: next, B15: 4.56; B16: 5.17.
On the same count and under the same terms, next, B17: 3.91; B18: 11.9; B19: 3.08.
Turning to B20, the ELISA_avg came to 14.4.
On the same count and under the same terms, as for B21, the figure is 10.1; as for B22, 6.73; as for B23, 4.49.
B24 yielded an ELISA_avg of 3.28.
Still for that read-out and setting: as for B25, the figure is 8.69; as for B26, 7.18; as for B27, 8.15.
The molecule B28 came in with an ELISA_avg of 7.91.
Same read-out and setting: as for B29, the figure is 7.86.
Consider B30, for which the ELISA_avg was found to be 9.75.
The same measure, in the same setting: next, B31: 7.75; B32: 6.82.
The molecule B33 had an ELISA_avg of 13.1.
The same measure, in the same setting: as for B34, the figure is 4.95.
Same read-out and setting: as for B35, the figure is 10.6.
Same read-out and setting: next, B36: 5.76.
B37 returned an ELISA_avg of 5.1.
Still for that read-out and setting: as for B38, the figure is 5.35; as for B39, 8.04; as for B40, 5.23.
